Results: PMC3963067

Biological target: mysterin/RNF213, wild type, full length, C-terminally 3 × FLAG-tagged (mysterin-FLAG) and C-terminally cMyc-tagged (mysterin-Myc) copies (human) (UniProt Q63HN8)
Experiment: co-IP; two differently tagged copies (C-terminal 3 × FLAG and cMyc) co-expressed in HEK-293 cells; lysate immunoprecipitated with anti-FLAG antibody, immunoblot with anti-Myc antibody; lysis buffer 1% NP-40, 150 mM KCl, 50 mM HEPES-NaOH pH 7.5
Details: remark: other sources report otherwise

efficiency of the co-IP (co-IP divided by the basal expression level): 1 to 3%
Substance: mysterin/RNF213, wild type, full length, C-terminally 3 × FLAG-tagged (mysterin-FLAG) and C-terminally cMyc-tagged (mysterin-Myc) copies, Q63HN8 1-5207
